Measured values taken from article PMC2894451 (The Journal of Cell Biology, 2010).
Non-standard residues stand in square brackets, D forms with d. No end group written: not given here. pS = N[C@@H](COP(=O)(O)O)C(=O)O; MBP = not defined here

Biological target: T1, GST-CHC 331–542 fragment (UniProt Q00610 331-542)
T1 sequence: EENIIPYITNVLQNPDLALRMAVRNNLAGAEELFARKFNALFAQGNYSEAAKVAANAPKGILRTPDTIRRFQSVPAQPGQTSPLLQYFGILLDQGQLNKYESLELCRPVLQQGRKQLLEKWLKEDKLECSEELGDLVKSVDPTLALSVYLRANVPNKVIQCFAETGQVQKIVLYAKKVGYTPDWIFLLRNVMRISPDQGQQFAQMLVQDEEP
Experiment: pull-down

B1: MBP-TACC3 522–577, phosphorylated by aurora A (domain or fragment)
chain: {MBP}-EESFRDPAEVLGTGAEVDYLEQFGTSSFKESALRKQ[pS]LYLKFDPLLRDSPGRPVPV
modifications: reading uncertain
- binding result: binds
